Our source for the interaction score values is publication PMC10397247.

The target of one assay is T1, AP4-AA.
T1 chain: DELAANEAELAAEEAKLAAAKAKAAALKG
As to the kind of experiment: two-hybrid library CCmax.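 Also: natural log of median RNA to DNA barcode read ratio; higher means stronger binding.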

The target of a further assay is T2, P12-AA.
T2 chain: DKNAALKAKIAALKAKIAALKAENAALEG
As to the kind of experiment: two-hybrid library CCmax.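 Also: natural log of median RNA to DNA barcode read ratio; higher means stronger binding.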 The conditions noted are these: mean of both orientations.

For another assay, the target named is T3, P4-AA.
T3 chain: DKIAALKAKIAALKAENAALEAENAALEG
Kind of assay: two-hybrid library CCmax.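 Also: natural log of median RNA to DNA barcode read ratio; higher means stronger binding.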 The conditions noted are these: mean of both orientations.

In the next assay the target is T4, P3-AA.
T4 chain: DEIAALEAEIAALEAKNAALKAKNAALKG
As to the kind of experiment: two-hybrid library CCmax.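 Also: natural log of median RNA to DNA barcode read ratio; higher means stronger binding.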 The conditions noted are these: mean of both orientations.

The next assay concerns the target T5, P11-AA.
T5 chain: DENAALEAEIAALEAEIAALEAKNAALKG
As to the kind of experiment: two-hybrid library CCmax.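 Also: natural log of median RNA to DNA barcode read ratio; higher means stronger binding.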 As to conditions: mean of both orientations.

For a further assay, the target named is GCN2_T. Kind of assay: two-hybrid library CCmax.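 Also: natural log of median RNA to DNA barcode read ratio; higher means stronger binding.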
For a further assay, the target named is T6, AP6-AA.
T6 chain: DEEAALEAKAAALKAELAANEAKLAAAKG
As to the kind of experiment: two-hybrid library CCmax. The conditions noted are these: mean of both orientations.

A further assay concerns the target T7, P9-AA.
T7 chain: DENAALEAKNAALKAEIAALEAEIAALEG
Kind of assay: two-hybrid library CCmax. The conditions noted are these: mean of both orientations.

In a further assay the target is T8, AP7-AA.
T8 chain: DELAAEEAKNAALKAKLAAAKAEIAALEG
As to the kind of experiment: two-hybrid library CCmax. The conditions noted are these: mean of both orientations.

Another assay deals with T9, P2-AA.
T9 chain: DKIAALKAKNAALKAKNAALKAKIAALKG
As to the kind of experiment: two-hybrid library CCmax. As to conditions: mean of both orientations.

The next assay addresses T10, AP5-AA.
T10 chain: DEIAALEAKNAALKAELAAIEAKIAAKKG
Kind of assay: two-hybrid library CCmax. The conditions noted are these: mean of both orientations.

The target of another assay is T11, P1-AA.
T11 chain: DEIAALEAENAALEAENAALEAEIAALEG
Kind of assay: two-hybrid library CCmax. The conditions noted are these: mean of both orientations.

The target of the next assay is T12, P10-AA.
T12 chain: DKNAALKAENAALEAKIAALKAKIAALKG
Kind of assay: two-hybrid library CCmax. The conditions noted are these: mean of both orientations.

In a further assay the target is T13, P7-AA.
T13 chain: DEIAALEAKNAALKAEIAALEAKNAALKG
Kind of assay: two-hybrid library CCmax. As to conditions: mean of both orientations.

A further assay concerns the target T14, AP8-AA.
T14 chain: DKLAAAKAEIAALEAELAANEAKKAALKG
As to the kind of experiment: two-hybrid library CCmax. As to conditions: mean of both orientations.

The next assay concerns the target T15, P8-AA.
T15 chain: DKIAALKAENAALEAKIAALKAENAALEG
Kind of assay: two-hybrid library CCmax. The conditions noted are these: mean of both orientations.

In another assay the target is T16, 4H591-bH.
T16 chain: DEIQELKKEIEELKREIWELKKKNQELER
As to the kind of experiment: two-hybrid library CCNG1.

For the next assay, the target named is T17, 4H575-bA.
T17 chain: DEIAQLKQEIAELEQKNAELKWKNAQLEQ
Kind of assay: two-hybrid library CCNG1.

The next assay deals with T18, 4H906-bH.
T18 chain: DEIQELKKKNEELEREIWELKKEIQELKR
Kind of assay: two-hybrid library CCNG1.

In another assay the target is T19, 4H3628-bH.
T19 chain: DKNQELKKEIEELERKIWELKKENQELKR
Kind of assay: two-hybrid library CCNG1.

The next assay addresses T20, 4H3926-bH.
T20 chain: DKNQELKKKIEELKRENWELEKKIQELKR
Kind of assay: two-hybrid library CCNG1.

Another assay deals with T21, 4H3613-bH.
T21 chain: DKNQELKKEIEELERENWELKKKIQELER
Kind of assay: two-hybrid library CCNG1.

The target of a further assay is T22, 4H3497-bH.
T22 chain: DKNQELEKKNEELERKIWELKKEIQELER
Kind of assay: two-hybrid library CCNG1.

For the next assay, the target named is T23, 4H3298-bH.
T23 chain: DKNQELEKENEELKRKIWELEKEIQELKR
As to the kind of experiment: two-hybrid library CCNG1.

A further assay concerns the target T24, 4H626-bH.
T24 chain: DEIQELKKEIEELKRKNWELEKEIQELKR
Kind of assay: two-hybrid library CCNG1.

The target in a further assay is T25, 4H3462-bH.
T25 chain: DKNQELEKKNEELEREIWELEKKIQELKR
Kind of assay: two-hybrid library CCNG1.

In the case of DELAANEAELAAEEAKLAAAKAKAAALKG [AP4-AA], the interaction score is -1.46 in the assay with AP4-AA; -1.45 with P12-AA; -1.48 with P4-AA; -1.14 in the assay with P3-AA; -0.858 with P11-AA; -1.55 with GCN2_T. Also, the interaction score is -2.03 with AP6-AA; -1.6 with P9-AA; -1.78 in the assay with AP7-AA; -1.78 with P2-AA; -1.51 in the assay with AP5-AA; -1.34 with P1-AA. Moreover, the interaction score was -1.25 with P10-AA, -1.82 with P7-AA, -1.25 in the assay with AP8-AA and -1.15 with P8-AA.
DKNQELEKENEELKRKIWELEKEIQELKR [4H3298-bH]: the interaction score with 4H591-bH is -1.21; with 4H575-bA, -1.29; with 4H906-bH, -0.397; with 4H3628-bH it was 0.519; with 4H3926-bH it was -0.215; in the assay with 4H3613-bH it was -1.68. Further, the interaction score in the assay with 4H3497-bH was -0.424; with 4H3298-bH it was 1.66; with 4H626-bH it was -0.173; with 4H3462-bH, 0.573.
